Experimental findings from the nanobody polyreactivity screen of Harvey et al. (2022) are described below.

The series can be described thus: yeast display, Sf9 membrane polyspecificity reagent, FACS + sequencing; frameworks hold sequencing errors. A digest of the protocol: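 Genes from sorted yeast were amplified by colony PCR, read by MiSeq 2 × 250 sequencing and filtered on CDR length. These cells carried a synthetic nanobody library in Saccharomyces cerevisiae BJ5465 and were sorted by FACS into low and high (top ~1%) gates on anti-HA and streptavidin fluorescence. Polyreactivity is labelled according to the gate of origin.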
Consider “QDQLVESGACLVQAGGRLRLSCAASGFTFYYNAMGWYRQAPGKEREFVAAISRSGGSTTYADSVKGRFTISRDNAMNTGFLEMNSLKPEDTAVYYCNARRYRCKSYDYWGQGTQVTVSS”, for which the “polyreactivity (PSR sort gate)” value is recorded as “high polyreactivity”. For “QVQLVESGGGLVQAGGSLRLSCAASGSIFVIYAMGWYRQAPGKERELVAAITWNGGSTVYADSVKGRFTISRDNAKNTVYLQMNSLKPEDTAVYSCNAVAVSNSGWEYDYWGQGTQVTVSS” the value was “low polyreactivity”; for “QVQLVETGGGLVQAGGSLRLSCAASGRIFVFYTKGWYRQAPGKERELVARITGGGSTSYADSVKGRFTISRDNAKNTVYLQMNSLKPEDTAVYYCAAVTRRRYYGHIYGYWGQGTQVTVSS”, “high polyreactivity”; for “QVQLVESGGGLVQAGGSLRLSCAASGSISGYYTMGWYRQAPGKERELVAAISRSGVRTYYADSVKGRFTISRDNAMNTVYLQMNSLKPEDTAVYYCARKDSSLGDYWGQGTQVTVSS”, “high polyreactivity”.

In the case of “QVQLHESGGVQAGGSLRLSCAASGYISRSDVMGWYRQAPGKERELVATINNGTITYYADSVKGRFTISRDNAKNTVYLQMNSLKPEDTAVHYCAVVQSDTDSLYYWGQGTQVTVSS”, the “polyreactivity (PSR sort gate)” value is given as “low polyreactivity”. For “QVQLVESAGGLVQAGGSLRYSCAASGRTIYRYAMGWYRQAPGKERELVAAINRSTGRTYYADSVKGRFTISRDNAKNTVYLQMTSLNPEDTAVYYCARSDKKYPQASSREDYGYWGQGTQVTVSS” the value was “high polyreactivity”; for “QVQLVESGGGLVQAGGSLRLSCAASGSTFGGNAMGWYRQAPGKERELVAAISSSGGSTYYADSVKGRFTISRDNAKNTVYLQMNSLKPEDTAVYYCAALYHWTYDYWGQGTQVTVSS”, “low polyreactivity”; for “QVQLVESGGGLVQAGGSLRLSCAASGFIFGSYAMGWYRQAPGKERELVAAISDSGDSTYYADSVKGRYTISRDNAKNTVYLQMNSLKPEDTAVYYCNRGYRWRRCENYYWGQGTQVTVSS”, “high polyreactivity”.

In the case of “QVQLVESGGGLVQAGGSLRLSCAASGSIFFYNTMGWYRQAPGKERELVAAISASGGRTYYADSVKGRFTISRDYSKNTVYLQMNSLKPEDTAVYYCAVRVPYRGYTRYDYWGHGTQVTVSS”, the “polyreactivity (PSR sort gate)” value is recorded as “high polyreactivity”.

Regarding “QVQLVESGGGLVQAGGSLRLSCAASGRTFIRNAMGWYRQAPGKERELVASISRRGGSTYYADSVKGRYTISRDNAKNTVYLQMNSLKPEDTAVYYCAKAYAFVTSGLGYDYWGQGTQVTVSS”, the “polyreactivity (PSR sort gate)” value is “high polyreactivity”. On to “QVQLVESGGGLFQAGGSLRLSCAASGSIFGHYAMGWYRQAPGKERELVAAISYSGGSTYYADSVKGRFTISRDNAKNTVYLHMNSLKPEDTAVYYCNADLYDAGSEMDYWGQGTQVTVSS”, for which the “polyreactivity (PSR sort gate)” value is reported as “high polyreactivity”.

Take “QVQLVESGGGLVQAGGSLRLSCAASGRIFQLYAMGWYRQRPGKERELVAAIRYSGDSTYYADSVKGRFTISRDNAKNTVYLQMNSLKPEDTAVYYCAAYWVYLSYYRYDYWGQGTQVTVSS”: the “polyreactivity (PSR sort gate)” value is “high polyreactivity”. For the sequence “QVQLVESGGGLVQAGGSLRLSCAASGGTFAVNAMGWYRQAPGKEREFVAAISSRGSTYYADSVKGRFTISRDNAKNNVYLQMNSLKPEDTAVYYCAAYRSYWEVYPRMYYWGQGTQVTVSS”, the “polyreactivity (PSR sort gate)” value is “high polyreactivity”. For “QVQLVESGGGLDQAGGSLRLSCAASGSIFAYAMPLYRQAPGKERELVASISTSTDITYADSVKGRFTISRDNAMNSVYFLMNSLKPEDTAVYYCAATYWQWWGWYDYWGEGTQVTVSS” the value was “high polyreactivity”; for “QVQLQESGGGLVQAGGSLRLSCAASGYISHADEMGWNRQAPGKEHELVASISNGGSTNYADSVKGRFTISRDNAKNTVYLQMNSLKSEDTGVYYCAAWTGQVDIHYYWGQGTQVPVSS”, “low polyreactivity”. Regarding “QVQLVESGGGLVQAGGSLRLSCAASGRTYGYAMGWYRQAPGKERELVARITWRGGSTSYADSVKGRFTISRDNAKNTVYLQMNSLKPEDTAVYYCAAGFYFPVYTYVRKRYYYWGQGTQVTVSS”, the “polyreactivity (PSR sort gate)” value was “high polyreactivity”. “QVQLVESGGGLVQAGGSLRLSCAASGSIFIDYVMGWYRQAPGTERELVAAISKRGGSTYYADSVKGRFTISRDNAKNTVYLQMNSLKPEDTAVYYCNAYRIGVYTAKDGYWGQGTQVTVSS”: the “polyreactivity (PSR sort gate)” value is on record as “high polyreactivity”. “QVQLVESGGGLVQEGGSLRLICAASGFTFGAHGMGWYRQAPGKERELVAANNSRGSRTYYADSGKGRFTISRDNPKNTVFFQMNSLQPDDTAVYYCAADYYAFKFGRFDYWGHGTQVTVSS”: the “polyreactivity (PSR sort gate)” value is on record as “high polyreactivity”.

Regarding “QVQLQESRGGLVKAGGSLRLSCAATGNISPRDAMGWYRQAPGEERDLVASNAYSAITYYADGVKGRYTISRDNAKNTVYLQMNSLKPEDTEVYYCAVYQFTYPVFPAYWGQGTQVTVSS”, the “polyreactivity (PSR sort gate)” value is “low polyreactivity”.

On to “QVQLVESGGGLVQAGGSLRLSCAASGRIFRLYAMGWYRQAPGKERELVATITSGGTYYADSVKGRFTISRDNAKNTVYLQMNSLKPEDTAVYYCTARRRLRYDYWGQGTQVTVSS”, for which the “polyreactivity (PSR sort gate)” value is reported as “low polyreactivity”. Under “QVQLVESGAGLVQAGGSLRLSCAASGSTFWYYAMGLYRQAPGKERELVAAITRDGNTYYADSVKGRFTISRDNAMNSFYLQMNSLKREDTAVYYCAAGFYLLGKYDYWGQGTQVTVSS” stands “high polyreactivity”. Under “QVQLVESGGGLVQAGGSLRLSCAASGTTYSINAMGWYRQATGKERELVAAISSGGSTYYADSVKGRFTISRDNAKYTVYLQMNSLIPEDTAVYYCAVDPSWTYWSTYRYDYWGQGTQVTVSS” stands “low polyreactivity”; under “QVQLVESGVGLVQAGGSLRLSCAASGSTFSAYTMGWYRQAPGKERELVAAIRFDGGRTYYADSVKGRFTISRDNAKNTVYLQMNSLKPEDTAVYYCRAWQSYSYDYSGQGTQVTVSS”, “high polyreactivity”.

For “QVQLVESGGGLVQAGGSLRLSCAASGSICDVNAMGWYRQAPGKEREMVAAISDSGGSTYYADSVKGRFTISRDTAKNTVYLQMNSLNPEDTSVYYCNADWSWYNYYDFDYWGQGTQVTVSS”, the “polyreactivity (PSR sort gate)” value is “low polyreactivity”. For “QVQLVESGGGLVQAGGSLRLSCAASGSTFPYYAMGWYRQAPGKERELVAAISQNGGSTYYADSVKGRFTISRDNAKNTVYLQMNSLKPEDTAVYYCNADGVGGEYRLSGYDYWGQGTQVTVSS” the value was “low polyreactivity”; for “QVQLVESGGGIVQAGGSLLLSCAASGSISFLYTMGWYRQAPGKERELVAAITGSTASTYYADSVKGRFTISRDNAKNTVYLQMNSLKPEDTAVYYCAAYWYAEGYWVSRDYWGQGTQVTVSS”, “low polyreactivity”; for “QVQLVESGGGLVQAGGSLRLSCAASGRTIKSNDMGWYRQAPGKERELVSAISRRGGSTYYADSVKGRFTISRDNAKNTVYLQMNSLKPEDTAVYYCAADLTFSYRQSAGRYSTYGYWGQGTQVTVSS”, “high polyreactivity”. Under “QVQLVESGGGLVQAGGSLRLSCAASGSIFQSYDMGWSRQAPGKERELVAAITRSGGRTYYAASVKGRFTISRDNAKNTVYLQMNSLKPEDTAVYYCAAFGWGYGYWGQGTQVTVSS” stands “high polyreactivity”; under “QVQLVESGGGLVQAGGSLRLSCAASGSIFNAYAMGWYRQAPGKERELVAVISRPGGSTYYADSVKGRFTISRDNAKNTVYLQMNSLKPEDTAVYYCNVYYPYKHRYYHLDYWGQGTQVTVSS”, “high polyreactivity”; under “QVQLVESGGGLVQAGGSLRLSCAASGRTFTINAMGWYRQAPGKERELVAAITSGGSTNYADSVKGRFTISRDNAKNTVYLQMNSLKPEDTAVYYCNAGYYSRRYYFSGRLDYWGQGTQVTVSS”, “low polyreactivity”.
